Results on one molecule are retold here after US20200158726A1 (NORDIC BIOSCIENCE A S, published 2020).

No end group written: not given here.

Assay [1] deals with T1, selection peptide SFSGFLVAPM-COOH (human).
T1 construct: Synthetic peptide; also called calibrator peptide
T1 peptide: SFSGFLVAPM-OH
Nature of the assay: competitive peptide assay (preliminary assays); the peptide also blocked the Western blot bands.

The target of assay [2] is T2, truncated peptide SFSGFLVA
T2 construct: Synthetic peptide; the selection peptide without its two C-terminal residues PM
T2 peptide: SFSGFLVA
Kind of assay: competitive peptide assay against the biotinylated screening peptide.

Assay [3] concerns the target T3, deselection peptide DMDYLPRVPNQ
T3 construct: Synthetic peptide
T3 peptide: DMDYLPRVPNQ
The description is as above.

In another assay the target is T4, collagen type X alpha 1 (human, UniProt Q03692 19-680).
T4 construct: Endogenous protein in U2-OS lysates, seen as bands of about 59 kDa (monomer), 76 kDa and 120 kDa (dimer); also called type X collagen; Col10
T4 sequence (Q03692 19-680): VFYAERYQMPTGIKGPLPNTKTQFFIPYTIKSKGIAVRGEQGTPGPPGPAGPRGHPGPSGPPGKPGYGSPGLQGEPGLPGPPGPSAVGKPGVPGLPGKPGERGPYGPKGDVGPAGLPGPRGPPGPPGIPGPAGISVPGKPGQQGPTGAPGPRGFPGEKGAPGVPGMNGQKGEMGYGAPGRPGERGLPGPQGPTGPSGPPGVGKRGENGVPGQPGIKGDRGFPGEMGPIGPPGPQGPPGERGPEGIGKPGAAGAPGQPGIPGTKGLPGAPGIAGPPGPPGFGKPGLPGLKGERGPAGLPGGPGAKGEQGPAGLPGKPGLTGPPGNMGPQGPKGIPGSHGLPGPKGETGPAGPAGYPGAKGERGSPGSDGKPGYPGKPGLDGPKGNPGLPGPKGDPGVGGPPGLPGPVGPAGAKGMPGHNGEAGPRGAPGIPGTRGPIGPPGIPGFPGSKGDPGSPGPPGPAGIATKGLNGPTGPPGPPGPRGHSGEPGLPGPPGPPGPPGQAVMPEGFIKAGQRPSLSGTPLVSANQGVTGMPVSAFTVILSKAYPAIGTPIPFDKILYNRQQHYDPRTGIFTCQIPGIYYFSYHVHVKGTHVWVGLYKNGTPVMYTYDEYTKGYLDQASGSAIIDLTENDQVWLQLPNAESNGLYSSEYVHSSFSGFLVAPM
Kind of assay: Western blot of U2-OS cell lysate, antibody at 1 ug/ml. How it is done:
Human osteosarcoma cell lines (U2-OS; collagen X producing cell line) were purchased from ATCC (USA) and cultivated in DMEM medium containing 10% FBS, 2 mM L-Glutamine, 100 units/ml penicillin and 100 ug/ml streptomycin. Cells were grown in T25 flasks in a 37° C. incubator at 5% CO2, changing the medium every two or three days. When the cells reached 90% confluency the cell lysates were prepared using RIPA lysis buffer with following procedure: the cell media was removed and the cells washed twice with PBS, followed by adding cold RIPA lysis buffer (25 mM Tris-HCl pH7, 6; 150 mM NaCl, 1% Sodium deoxycholate acid). An EDTA free cocktail tablet was added to the flask then RIPA buffer was distributed to cover the whole surface of flask and incubated on ice for 10 minutes. The cells were scraped and centrifuged at 10,000 RPM at 4° C. for 10 minutes and the supernatants stored at −20° C. until use.
Protein bands were blotted onto a nitrocellulose membrane using the Invitrogen i-Blot gel transfer system according to manufacturer's instruction. The membrane was blocked in blocking buffer (5% skimmed milk in Tris-buffered saline with Tween (TBST)) overnight at 4° C. The monoclonal antibody, NB509-11G8 and commercial collagen type X antibody X53 (for comparison purposes) were applied in a concentration of 1 μg/ml in TBST with 5% skim milk powder and shaken overnight at 4° C. […]

B1: monoclonal antibody NB509-11G8 (antibody, mouse IgG1, kappa, V domains shown)
VH: EVQLQQSGAELVKPGASVKLSCTASGFNIKDTHMHWVKQRPEQGLEWIGRIDPANVNTKYDPRFQGRATITADTSSNTAYLQLSRLTSEDTAVYYCATSGSSPWGQGTTLTVSS
VL: DVVMTQTPLSLPVSLGDQASISCRSSQSLVHSNGYTYSNWYLQKPGQSPKLLIYRVSNRFSGVPDRFSGSGSGTDFTLKISRVEADDLGVYFCSQSTHVPWTFGGGTKLEIKR
notes: Mouse IgG1, kappa, from a hybridoma
In the case of B1, the binding result in assay [1] is listed as “binds”; in assay [2], “no binding”; in assay [3], “no binding”; with collagen type X alpha 1, “binds”.
